The DeepSol protein solubility set

experiment: soluble on expression in E. coli; label from the status in PepcDB or PDB records

Row | Sequence | soluble on expression in E. coli
1 | MSQGLPLREDVPVSETWDLVDLFKDDQQYYESIDALVQQANQFHHTYATTLNSIEQINTALAELENILIALDRLSNYAELRLSVDTSNIEAQVLSAKLSTTYGKIVSQLSFVESEILELPEEILQQLEESCPYQHYIKQLIKQKPFQLSASVEQVLATLSPTLNSPYDLYGTTKMLDITFDSFEHDGTTYPVDYATFENDYEDNKDPEFRRKSFKSFSDGIRKYQHTTAATYNMQVQQEKIEADLRGFESVIDYLLHSQEVTRDMFDRQIDMIMRDLAPVMQKYAKLLQRIHGLDNMRFEDLKISVDPDYEPEISIEDSKNYIFGALSVLGDDYTNMLREAYDQRWIDFAQNKGKDTGAFCASPYFTHSYVFISWTGKMAEAFVLAHELGHAGHFTLAQKHQPYLESEASMYFVEAPSTMNEMLMANYLFNTSDNPRFKRWIIGSILSRTYYHNMVTHLLEAAYQREVYHKVDQGESLNAPTLNEIMLNVYKQFFGDAVDMTEGAELTWMRQPHYYMGLYSYTYSAGLTIGTVVSQKIKNEGQPAVDAWLETLKKGGSVSPVELANIAGVDITTEQPLKSTIQYISDLVDEVEKLTDEIEQANN | soluble
2 | PIVLFPGQQATLSPQGISSPSPFDHTAITAWLRNQLVFYDTPLAEVVDTLNRHRHGRIFITNQKLKALKVSGVFSTDEPDTALDVMINTLPIHLLRLTDYLVLI | not soluble
3 | LNNLEELKRDIIEQFKEKNALDEGIVVMASGGKDSSTAIALAKDLGLNIEYLIHFYHRWSWDVSKKMVEKLSKKFDIPVIFYNITDELLKRTKGAKGSSICRICKNIMKDKAVDISKEKGIRIIMTGDSALEKVSGAVMNYLRDVYGEVVYNKMELTPVPQKYSKGKDKEVLFFRPLIRLACEDVLKLMDYYNIEIERAHE | not soluble
4 | MSQSSDASEKEKPKEKKSQEELEKELDKELKKGGEPKTKKDDQIHKIGETFKAGHTNFTVNKVDRVQKGEYMNVGGAVNEETKTIKDDEERLIIEVTMENIGEDSISYNFIGFDLRDKNDQSVRPVFSIEEKGRILMGGTLVSGKKVTGVLSYVIPKGEQKHYTLVYNPFLADTNSSNTEERVKDDIDYLVKLDLEHHHHHH | soluble
5 | MTAAARTPAFYLDLGVPDTVMGRFEMLSVIMILYFRRTKSSGVSGQEIAQEIVDAFFQDIDHSIRELGIGDQGVPKRMKKFAGMFYGRLESYAAALDASDCAALAAALRRNIYPQVDDEAPEMEGLAGWMMETSDALAAQSEETIATGSLTLPLPILEHHHHHH | not soluble
6 | MLITEIFHSIQGEGPYAGLPMLFVRTNVCNIRCEWCDTKYSFYGGKEIPLSELLGIVKEAKEGWVCFTGGEPLVQRDALAFVKSVVDMGKNVLIETNGTISIRNFVFSDRIFIDMDVKPPSAKVTKGFLMDNLRYLRKQDYLKIVIKDDTDLDFAIDFVDRYGEGLSFVFQPAWGSDIRRIADRIVGTGYNVRVLPQIHKIIYGDVPGV | not soluble
7 | MHTNERKTVVYEYQNEQEVVMKVKELELQGVRHDDIYVLAHEKHITKRIADDTNTNTIGVKEQGLGTSIINFFSKKGDELRNQMEEMGLSKEEANLYEEKLDQGKILLLVTAEVPMANDRQPQNYHSL | not soluble
8 | GPLGSGGLFFNALKNCKENFTVLQTIRQQQSTLNGSWVALLQTRNTLNRAGIRYMMDQNNIGSGSTVAELMESASISLKQAEKNWADYEALPRDPRQSTAAAAEIKRNYDIYHNALAELIQLLGAGKINEFFDQPTQGYQDGFEKQYVAYMEQNDRLHDIAVSDNNASYSHHHHHH | soluble
9 | MLPEYGPLAPSEEELHLFGDVDRLKVLEIGCGSGHSLKYLDEKQAGELWGIDLSTKQIEAAQTVLKDSKAPVTLFESPMEVNPGLPTDYFDIVFSIYALGWTTNLTKTLENVYRYLKPGGSFIFSWEHPMYNRVRQHQHGLTVDKSYHEEGAYAHEAWSSPAIMQQYRLSTYLNHLIDHGFKVERVIEDVCLADAQKHTNGWYGYEKAQMIPTTLIIKCLKQLEHHHHHH | soluble
10 | MKRFRKNNLELELIRELSEIDFYNISAPLNSKEFWKEWQEKFNRANLTRIALRNILRNKRLSPKEYRKVKNSIKKYEDIINYLNALKLTALNARGSFGGYFIEFDEDEEENEGGT | not soluble
11 | MSLTESARIDGVSLYEIVIPMKIPFQISSGTCYTRRSLVVEIREGDLFGYGESAPFEEPFYLGETLETTKVILKNHLLPMILGKEPLSIEEFNHLIKNGIRGNHFARCGVENAYWDLIAKKNKISLKAMIEKKMKNLGVKQEYLASNNYIESGAALGIPEDGRIETLIHQVEESLQEGYRRIKIKIKPGWDVEPLQETRRAVGDHFPLWTDANSSFELDQWETFKAMDAAKCLFHEQPLHYEALLDLKELGERIETPICLDESLISSRVAEFVAKLGISNIWNIKIQRVGGLLEAIKIYKIATDNGIKLWGGTMPESGLGARFLISLASFRGFVFPADVAASEKWYGKGNDLVENTMTDGKIYVPDEPGASFDMTLSHLEALGKKIWESQRGEGHHHHHH | soluble
12 | MCTFCSIINRELEGYFVYEDEKFAAILDKYPVSLGHTLVIPKKHFENYLEADEDTLAELAKVVKLVSLGIKDAVKADGLRLLTNIGRSAGQVIFHLHVHIIPTWEGDYPDIFKSFKPRKEQEKEYYELLQKIIRESIENLKRKIGDYKWG | soluble
13 | MNNNLQRDAIAAAIDVLNEERVIAYPTEAVFGVGCDPDSETAVMRLLELKQRPVDKGLILIAANYEQLKPYIDDTMLTDVQRETIFSRWPGPVTFVFPAPATTPRWLTGRFDSLAVRVTDHPLVVALCQAYGKPLVSTSANLSGLPPCRTVDEVRAQFGAAFPVVPGETGGRLNPSEIRDALTGELFRQG | soluble
14 | MSNQRSSLKHLNTFALPAYASNVISAGSVETLIAAWHESKAKRQPVLLLGEGSNVLFIKNFSGTVLLNRIMGITSTEDSAAWYLHVGAGENWHQLVCHSLQNNMPGLENLALIPGCVGSAPIQNIGAYGVELKQVCEYVDLLDMDKGTIQRISAEECQFGYRDSIFKHRYGNGFAIVSVGIKLMKSWTPTLGYGDLIHMDPLTVTATDIFNSVCTMRRSKLPDPMVTGNAGSFFKNPVVSAAIAEEIVHCYPNAPHYLQPDGSVKLAAGWLIDQCSLKGYQIGGAAVHQQQALVLINQSEATGQDVIHLARYIRQQVAQRFSIWLEPEVRFIADNGEVNAVEHLS | not soluble
15 | MSLNYQMITTDDALASLCEAVRAFPAIALDTEFVRTRTYYPQLGLIQLFDGEHLALIDPLGITDWSPLKAILRDPSITKFLHAGSEDLEVFLNVFGELPQPLIDTQILAAFCGRPMSWGFASMVEEYSGVTLGKSESRTDWLARPLTERQCEYAAADVWYLLPITAKLMVETEASGWLPAALDECRLMQMRRQEVVAPEDAWRDITNAWQLRTRQLACLQLLADWRLRKARERDLAVNFVVREEHLWSVARYMPGSLGELDSLGLSGSEIRFHGKTLLALVEKAQTLPEDALPQPMLNLMDMPGYRKAFKAIKSLITDVSETHKISAELLASRRQINQLLNWHWKLKPQNNLPELISGWRGELMAEALHNLLQEYPQEGGSHHHHHH | soluble
16 | MGSDKIHHHHHHMIHWLKVPNNPELAKYIACYWFLEKLPNAEGHNDYPKLNPDPASHLILALPQQNFRYKSDNGVTQMDGCHWLHPHGKTYELDHAKAVACIGIKFHVGALYSLPTFMDLQEQTPQAVVDTVEAISFENINFAQSNFDDHKLSDNNQLNEHDLVILARNSPDDCAEMLDKLCLPWLLKNHEDNHSELTRKVLPLLAKAAINSLGDTLFCSQRTLERSFLKVSGVTLKQCQSMNRLEAILEFLYQREQSDIDWVDIAYQFGFSDQPHLIRYLKKQLGLTPQDYALQRGFTIDVYGGVDSL | not soluble
17 | MGSDKIHHHHHHMGIRVSTISRCIGHLEDEIGVALFLRRPNGVTLTFAGEQFLVRARRAMTEVRHAICEAGIAGTGRNGFVRLGLLSSLAAPFPAMLIKIYCAAYPGVRILYSEGGAADHRAALQHHRLDLAFLPHPEKAEGCDALGLWEERLFAAMAQDDPLTRHDVVTWDDLRERHFIFSEVPPGPELLDYLTERLVGFGFLLKADLLTVYRDTVMRVIANGSDVTVIGEARVSHPIQGVACRPITGESLFFHAVWLPTNDNPAFRRFLSLAKVLSKQCSVCELKEGLAGPSGEDHSVMDETSASLERKSRLLKIVSERCATCLLKKAIAD | not soluble
18 | MSMFGKVAADVLGLSDIGSVIQPKDYDKVDADDYVMHEDGEKIYFLIKSKSDEYCFTNRALIHLDGTSAASKKRTLRRYDYYKHPISDVSLETAGTVDLDAEIKFKIGPHSYSIDVHKKHIEELKDLYKSLLAIAEICHENEMKFHYAERSLELATKVFANMRGDGANVSADFQAVNEYAFRWLTEAKKNYTVKDFGFVFDKYIQQ | not soluble
19 | MLGLPPELGLRTYSARLLGSNPKLVLHGGGNTSVKLNINDLFGNPVQVMCIKGSGQDLATITASGHPAVRLAPLQQLKVLDHLSDEDMVNILRTNLLDCRAPTPSVEALLHAFVDRPVIDHTHAVAAMVIADQPDGDRLCRYIYGERVLWIPYVMSGFALSLAVERAFRAYPDAEGMLLGKHGLCTFGESAKASYERMITFVTLAENFIESRRAIYSPLEHHHHHH | not soluble
20 | MIDRLAMIGVNVKTASREHVARLEKEWEKHLDTIGYASRGTVIIATCNRFEVYLDSPSRLVEDLASSIASPGGEGLVRLQGIDAARHLFRVASGLESQIIGDHEVLGQVRRAWLKSREKGFTTPLLDEVFHRALKTGARVRSESAISSGGVGYSSAAVSLAASLLGGGLDGARVGIVGAGMAAVGIARALCTRWRPRVVAVFNRTPERGWEVAGKCRGVESLVLPLDELAKLINELDALFVAIAGSTNILERGRVERGVSPRVIVDISNPPVTPKVAGRVFHMPEVEEEAKRMMEERLRWIPAAEAIIEEELEALLDALSRRRARESSRSVMRALSILAEREYERTLAGLRNGVDPREAVELALNSYTKKVGGALRRLLEEASDRGQLSLEDIEAILVSEFARIAENSGFKNGSTG | soluble
21 | MTDLIHRPRRLRKSAALRAMFEETTLSLNDLVLPIFVEEELDDYKAIDAMPGVMRIPEKQLAREIERIANAGIRSVMTFGISHHTDDTGSDTWKEDGLVARMSRICKQTVPEMIVMSDTCFCEYTSHGHCGVLCEHGVDNDATLANLGKQAVIAAAAGADFIAPSAAMDGQVQAIRQALDAAGFTDTAIMSYSTKFASSFYGPFREAAGTALKGDRKTYQMNPMNRREAIRESLLDEAQGADCLMVKPAGAYLDVLREIRERTELPLGAYQVSGEYAMIKFAAMAGAIDEEKVVLESLGSIKRAGADLIFSYFALDLAEKNILR | not soluble
22 | MNTFTACVERGENWWVAQLVEDPGVIVQARRLDQIQEEIRDALALFPKLTDSPETASVHLDLVGEIEQKAQATRDQLAAIRECEAHELANMSQHARRLQAAGVLRDSMQIASGSQAARS | not soluble
23 | MTEHSLWRFSRALHRALNDRQTEELATIIDDNIDWAIYGPIDMFPFFGARQGKAAVLEVCRQIADSVRIYRYHRESVMLGIDSAASMVRYSLTAAGTNRPISVRMALFTQFQNGRLTNLRMVLDTFDLVEQALGRPIHLPKIA | soluble
24 | MKELNDLEKKYNAHIGVYALDTKSGKEVKFNSDKRFAYASTSHAINSAILLEQVPYNKLNKKVHINKDDIVAYSPILEKYVGKDITLKALIEASMTYSDNTANNKIIKEIGGIKKVKQRLKELGDKVTNPVRYEIELNYYSPKSKKDTSTPAAFGKTLNKLIANGKLSKENKKFLLDLMLNNKSGDTLIKDGVPKDYKVADKSGQAITYASRNDVAFVYPKGQSEPIVLVIFTNKDNKSDKPNDKLISETAKSVMKEF | soluble
25 | MAQSPFRRMTTPGGYQMSVAMTNCGERGWITDHTGYRYDPVDPRTGVPWPAMPPAFRDLARRAAEQGGFTGFAPDACLVNRYEPGTRLSLHQDKDELDYAAPIVSVSLGLPATFLFGGMARSDKPRRFRLVHGDVVVWGGASRLAYHGVAPLADGEHALLGRQRINLTFRKVLLEHHHHHH | soluble
